Experimental data reported in patent US20140363438A1, “NEUREGULIN ANTIBODIES AND USES THEREOF” (Genentech, Inc., priority 2011, published 2014).

Legend:
[1] = biological target: T1, Recombinant human NRG1-α EGF domain (R&D Systems, cat#296-HR/CF) (human, UniProt Q02297 177-241); test: competition ELISA on NRG1α; competitor whose signal is read: 526.90
T1 construct: also called NRG1-alpha; HRG1α
T1 sequence: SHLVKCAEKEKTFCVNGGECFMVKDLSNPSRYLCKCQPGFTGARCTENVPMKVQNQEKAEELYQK

[2] = biological target: T1, Recombinant human NRG1-α EGF domain …; test: competition ELISA on NRG1α; self-competition, signal read: 538.24.71
[3] = biological target: T2, Recombinant human NRG1-β ECD domain (R&D Systems, cat#377-HB/CF) (human, UniProt Q02297-11 121-191, limits assumed); test: SPR (BIAcore T100), IgG captured by anti-human Fc; table under the head '125nM NRG-beta'; this table is identical to that of FIG. 9 (NRG1-alpha) and does not fit the slow dissociation of the sensorgrams above it
T2 construct: also called NRG1-beta; HRG1β
T2 sequence: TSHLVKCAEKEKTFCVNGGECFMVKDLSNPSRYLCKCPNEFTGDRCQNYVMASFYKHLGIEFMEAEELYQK

[4] = biological target: T1, Recombinant human NRG1-α EGF domain …; test: competition ELISA on NRG1α; competitor whose signal is read: 526.02
[5] = biological target: T1, Recombinant human NRG1-α EGF domain …; test: SPR (BIAcore T100), IgG captured by anti-human Fc, NRG1α injected; table under the head '250 nM NRG1-alpha'
Procedure: (§1) Binding affinities of anti-NRG1 IgGs were measured by Surface Plasmon Resonance (SRP) using a BIAcore™-T100 instrument. Anti-NRG1 human IgGs were captured by mouse anti-human Fc antibody (GE Healthcare, cat# BR-1008-39) coated on CM5 biosensor chips to achieve approximately 1000 response units (RU). […] Association rates (kₒₙ) and dissociation rates (koff) were calculated using a simple one-to-one Langmuir binding model (BIAcore Evaluation Software version 3.2). The equilibrium dissociation constant (KD) was calculated as the ratio koff/kₒₙ.

[6] = biological target: EGF (UniProt P01133 971-1023); test: ELISA
[7] = biological target: HB-EGF (UniProt Q99075 63-148, limits assumed); test: ELISA
[8] = biological target: T3, Betacellulin (BTC) (UniProt P35070 32-111); test: ELISA
T3 sequence (looked up): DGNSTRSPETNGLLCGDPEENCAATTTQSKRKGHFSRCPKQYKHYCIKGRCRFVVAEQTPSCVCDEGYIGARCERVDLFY

[9] = biological target: T2, Recombinant human NRG1-β ECD domain …; test: competition ELISA on NRG1β; competitor whose signal is read: 526.90
[10] = biological target: T1, Recombinant human NRG1-α EGF domain …; test: cell-based or functional assay
[11] = biological target: T4, Recombinant human Neuregulin 1-beta (rhNRG1b, Genentech) (human, UniProt Q02297 1-640); test: cell-based or functional assay
T4 sequence: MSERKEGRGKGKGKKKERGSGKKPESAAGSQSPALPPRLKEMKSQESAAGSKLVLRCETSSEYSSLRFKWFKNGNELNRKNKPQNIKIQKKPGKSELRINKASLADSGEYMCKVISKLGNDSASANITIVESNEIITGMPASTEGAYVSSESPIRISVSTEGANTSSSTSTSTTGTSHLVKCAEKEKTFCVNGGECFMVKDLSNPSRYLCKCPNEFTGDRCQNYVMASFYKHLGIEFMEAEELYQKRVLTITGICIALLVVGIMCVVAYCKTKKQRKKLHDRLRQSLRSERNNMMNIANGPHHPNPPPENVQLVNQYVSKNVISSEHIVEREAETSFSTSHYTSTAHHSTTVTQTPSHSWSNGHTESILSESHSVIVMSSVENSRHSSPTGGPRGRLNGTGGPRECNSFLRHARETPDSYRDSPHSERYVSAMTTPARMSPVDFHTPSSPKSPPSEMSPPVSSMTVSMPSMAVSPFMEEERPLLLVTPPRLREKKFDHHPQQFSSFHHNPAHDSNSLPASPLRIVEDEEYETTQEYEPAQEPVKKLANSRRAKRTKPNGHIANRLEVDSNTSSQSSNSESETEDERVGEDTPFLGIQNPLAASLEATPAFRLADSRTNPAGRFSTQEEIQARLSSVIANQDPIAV

[12] = biological target: T2, Recombinant human NRG1-β ECD domain …; test: competition ELISA on NRG1β; competitor whose signal is read: 526.02
[13] = biological target: T2, Recombinant human NRG1-β ECD domain …; test: competition ELISA on NRG1β; self-competition, signal read: 538.24.71
[14] = biological target: T2, Recombinant human NRG1-β ECD domain …; test: SPR (BIAcore T100), IgG captured by anti-human Fc, NRG1β injected; sensorgram shown for 6.25 nM (sheet: '6.25 mnM NRG beta')
Procedure: as §1

[15] = biological target: T1, Recombinant human NRG1-α EGF domain …; test: SPR (BIAcore T100), IgG captured by anti-human Fc, NRG1α injected; sensorgram shown for 6.25 nM (sheet: '6.25 mnM NRG alpha')
Procedure: as §1

[16] = biological target: T5, NRG1β (Homo sapiens, UniProt Q02297); test: Inhibition of 125I-HRG (NRG1β) binding to HER3-ECD-Fc; settings: affinity matured clones of 538.24, FIG. 7
T5 sequence (Q02297 177-244 isoform Q02297-6 limits assumed): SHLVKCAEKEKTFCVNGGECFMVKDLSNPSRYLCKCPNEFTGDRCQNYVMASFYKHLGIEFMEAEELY
Procedure: The antibodies were tested for their ability to inhibit NRG1β binding to HER3-Fc. 125I-HRG was generated at Genentech as described previously (Sliwkowski et al JBC 1994). Binding assays were performed in Nunc break-apart strip wells (Thermo-Fisher Scientific, Rochester, N.Y.). Plates were coated at 4° C. overnight with 250 ng/well of HER3-ECD-Fc fusion protein in carbonate buffer (pH 9.6). Plates were rinsed twice with wash buffer (PBS/0.05% Tween 20) and blocked with 100 μL PBS including 1% bovine serum albumin (BSA) for 30 minutes. Increasing concentrations of anti-NRG1 antibodies in RPMI 1640 medium (Invitrogen; Carlsbad, Calif.) with 0.2% BSA were pre-bound to HER3-ECD-Fc. 125I-HRG (specific activity: 266 mCi/mg, 75,000 cpm/well) was added immediately after in a total assay volume of 130 μL. Plates were incubated for 2 hours at room temperature, rinsed twice, and individual wells were counted using a 100 Series Iso Data γ-counter. Samples were assayed in triplicates. Plotting was performed using KaleidaGraph 3.6 software. […]
The affinity matured variants were tested for their ability to block HRGβ binding to HER3-Fc. […] Plates were incubated for 2 hours at room temperature, rinsed twice, and individual wells were counted using a 100 Series Iso Data γ-counter. […]

[17] = biological target: T1, Recombinant human NRG1-α EGF domain …; test: SPR (BIAcore T100), IgG captured by anti-human Fc, 250 nM NRG1α injected; sensorgram
Procedure: as §1

[18] = biological target: T1, Recombinant human NRG1-α EGF domain …; test: competition ELISA on NRG1α; signal of 526.90 against rising 538.24.71

Chain of EGF (P01133 971-1023 limits assumed): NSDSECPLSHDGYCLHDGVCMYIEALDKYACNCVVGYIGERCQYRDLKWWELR
Chain of HB-EGF (Q99075 63-148 limits assumed): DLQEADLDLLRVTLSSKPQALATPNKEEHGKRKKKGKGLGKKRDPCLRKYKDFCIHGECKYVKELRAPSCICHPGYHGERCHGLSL

B1: anti-NRG1 antibody 538.24.71 (antibody, human IgG1, kappa, V domains shown)
VH: EVQLVESGGGLVQPGGSLRLSCAASGFTFSGTWIHWVRQAPGKGLEWVAAITPADGSTNYADSVKGRFTISADTSKNTAYLQMNSLRAEDTAVYYCATYMFAMDYWGQGTLVTVSS
VL: DIQMTQSPSSLSASVGDRVTITCRASQDVSISLAWYQQKPGKAPKLLIYGASNLESGVPSRFSGSGSGTDFTLTISSLQPEDFATYYCQQHYTLPFTFGQGTKVEIKR
notes: also called YW538.24.71
- IC50 (read off the curve) [1]: ~4 nM
- IC50 (read off the curve) [2]: ~3 nM
- Kd [3]: 2 nM
- koff [3]: 0.03 s⁻¹
- kon [3]: 1.5e+07 M⁻¹ s⁻¹
- IC50 (read off the curve) [4]: ~5 nM
- Kd [5]: 2 nM
- koff [5]: 0.03 s⁻¹
- kon [5]: 1.5e+07 M⁻¹ s⁻¹
- binding result [6]: no binding
- binding result [7]: no binding
- binding result [8]: no binding
- IC50 (read off the curve) [9]: ~8 nM
- IC50 of inhibition of Her3 activation (phosphorylation), KIRA on MCF-7 cells, 0.5 nM rhNRG1a [10]: 14 nM
- IC50 of inhibition of Her3 activation (phosphorylation), KIRA on MCF-7 cells, 0.2 nM rhNRG1b [11]: 0.12 nM
- IC50 (read off the curve) [12]: ~2 nM
- IC50 (read off the curve) [13]: ~7 nM
- Kd [14]: 0.00192 nM
- koff [14]: 1.48e-06 s⁻¹
- kon [14]: 771000 M⁻¹ s⁻¹
- Kd [15]: 1.32 nM
- koff [15]: 0.00603 s⁻¹
- kon [15]: 4.57e+06 M⁻¹ s⁻¹

B2: 538.24.38: affinity matured variant of 538.24; VH SEQ ID NO: 21, VL SEQ ID NO: 25 (antibody, V domains shown)
VH: EVQLVESGGGLVQPGGSLRLSCAASGFTFSGTWIHWVRQAPGKGLEWVAAITPADGSTNYADSVKGRFTISADTSKNTAYLQMNSLRAEDTAVYYCATYMFAMDYWGQGTLVTVSS
VL: DIQMTQSPSSLSASVGDRVTITCRASQDVSTAVAWYQQKPGKAPKLLIYSASFLYSGVPSRFSGSGSGTDFTLTISSLQPEDFATYYCQQSYTIPMTFGQGTKVEIKR
modifications: Heavy chain variable region; Light chain variable region
- blocking of 125I-NRG1β binding to Her3 [16]: All but 538.24.38 are highly effective in blocking binding

B3: 538.24.38 (antibody, V domains shown)
VH: EVQLVESGGGLVQPGGSLRLSCAASGFTFSGTWIHWVRQAPGKGLEWVAAITPADGSTNYADSVKGRFTISADTSKNTAYLQMNSLRAEDTAVYYCATYMFAMDYWGQGTLVTVSS
VL: DIQMTQSPSSLSASVGDRVTITCRASQDVSTAVAWYQQKPGKAPKLLIYSASFLYSGVPSRFSGSGSGTDFTLTISSLQPEDFATYYCQQSYTIPMTFGQGTKVEIK
notes: also called YW538.24.38; copies: 2 + 2
- binding result [17]: binds

B4: anti-NRG1 antibody 526.90 (antibody, human IgG1, V domains shown)
VH: EVQLVESGGGLVQPGGSLRLSCAASGFTFSGNAMSWVRQAPGKGLEWVSWIYPSGGNTYYADSVKGRFTISADTSKNTAYLQMNSLRAEDTAVYYCARSYILSYPSITWAFDYWGQGTLVTVSS
VL: DIQMTQSPSSLSASVGDRVTITCRASQSISSYLAWYQQKPGKAPKLLIYGASSRASGVPSRFSGSGSGTDFTLTISSLQPEDFATYYCQQSYSTPITFGQGTKVEIKR
notes: also called YW526.90
- binding result [18]: binds
